According to PMC9599842 (2022):

What was measured:
HcAb.RR359.L110A = assay: BLI
HcAb.RR359.D107A = assay: BLI

- koff (HcAb.RR359.L110A): 0.00425 s⁻¹
- koff (HcAb.RR359.D107A): 0.00135 s⁻¹
B1: mEGFR-His recombinant protein (receptor)
chain: LEEKKVCQGTSNRLTQLGTFEDHFLSLQRMYNNCEVVLGNLEITYVQRNYDLSFLKTIQEVAGYVLIALNTVERIPLENLQIIRGNALYENTYALAILSNYGTNRTGLRELPMRNLQEILIGAVRFSNNPILCNMDTIQWRDIVQNVFMSNMSMDLQSHPSSCPKCDPSCPNGSCWGGGEENCQKLTKIICAQQCSHRCRGRSPSDCCHNQCAAGCTGPRESDCLVCQKFQDEATCKDTCPPLMLYNPTTYQMDVNPEGKYSFGATCVKKCPRNYVVTDHGSCVRACGPDYYEVEEDGIRKCKKCDGPCRKVCNGIGIGEFKDTLSINATNIKHFKYCTAISGDLHILPVAFKGDSFTRTPPLDPRELEILKTVKEITGFLLIQAWPDNWTDLHAFENLEIIRGRTKQHGQFSLAVVGLNITSLGLRSLKEISDGDVIISGNRNLCYANTINWKKLFGTPNQKTKIMNNRAEKDCKAVNHVCNPLCSSEGCWGPEPRDCVSCQNVSRGRECVEKCNILEGEPREFVENSECIQCHPECLPQAMNITCTGRGPDNCIQCAHYIDGPHCVKTCPAGIMGENNTLVWKYADANNVCHLCHANCTYGCAGPGLQGCEVWPSGPKIPS
